Experimental data: US6932973B2, “Peptides which stimulate the expression of the cytokines of inflammation and promote tissue regeneration” (Centre National de la Recherche Scientifique—CNRS, priority 1999, dated 2005)
“Also recorded” adds a separate entry of the source. Where two headings read alike, the source gives them in different places.

How the values were obtained:
HUVEC cells = experiment: Mitogenic activity on HUVEC cells (cell counting); format: cell-based; details: wells coated with 100 ng/ml, 72 hours of culture, triplicate
Description: The cells used were HUVEC cells (Clonetics) used between passages 1 to 5. Each of the wells of a 48-well culture plate (Costar) was incubated for 1 night at 4° C. with a solution of HARP (100 ng/ml), of purified HARP peptide (100 ng/ml) or solely the negative control buffer. After rinsing the wells with a PBS solution, the cells were inoculated at the rate of 2×10^4 cells per cm^2 in the DMEM culture medium containing 2% of fetal calf serum. Each quantitative determination was performed in triplicate.
Induction of cellular proliferation was assessed by counting the cells after 72 hours of culture.

[1] = system: cytokines of inflammation (TNF-alpha, IL-1, IL-6); experiment: Expression/production of the cytokines of inflammation; format: cell-based, human
[2] = system: human mononucleated cells of the peripheral blood (PBMCs); experiment: Incorporation of tritiated thymidine in PBMCs (proliferation); format: cell-based; details: for activation response of PBMCs compared to the HARP protein: 1 ng/ml HARP, 1 μg/ml peptides (FIG. 6)
Description: The PBMCs were cultured for 7 days in RPMI culture medium containing 10% fetal calf serum in the absence of or in the presence of 1 ng/ml HARP protein or 1 μg/ml of peptides 1 or 2. The incorporation of tritiated thymidine was determined as described above.
Human mononucleated cells originating from different healthy donors were isolated from peripheral blood after centrifugation on a Ficoll-Hypaque pad (Pharmacia Biotech) in accordance with the manufacturer's instructions. The cells were washed then cultured in RPMI 1640 medium supplemented by 10% heat-inactivated fetal calf serum (56° C., 30 min), 100 units/ml of penicillin and 100 μg/ml of streptomycin. The cells were inoculated at the rate of 10^6 cells per ml in a 96-well (round bottoms) culture plate (Costar). They were cultured for 7 days in the presence or not of human recombinant HARP protein produced in E. coli at the concentration of 100 ng/ml. In the last 18 hours of culture, 1 μCi of tritiated thymidine was added to each of the wells. The radioactivity incorporated in the cell nuclei was then measured using a scintillation counter.

IL-6 = experiment: Expression of IL-6 by PBMCs (ELISA); format: cell-based, human
Description: (§1) Quantitative determination of these cytokines was performed using an ELISA test from R&D.
Quantitative determination of these cytokines was performed after 7 days of incubation using an ELISA test from R&D.
(§2) The cells were isolated from peripheral blood of normal subjects (blood donors) and collected in a Vacutainer tube containing EDTA. Mononucleated cells were separated by ficoll gradient, counted and adjusted to 10^6 per ml. The cells were incubated for 3 or 7 days at 37° C. in humid atmosphere with 5% CO2 in the presence of variable concentrations of HARP ranging from 1 to 1000 ng/ml or other peptides which are mentioned in the legends of the figures.

soleus muscle = format: in vivo, Wistar rat; details: 1 μg injected in 50 μl into crushed rat soleus, 4 days
[3] = system: PBMCs treated by tetanus toxin
IL-2 = IL-2 levels after incubation of PBMCs with HARP; format: cell-based, human; details: after incubation of PBMCs with HARP factor
NIH 3T3 cells = details: read-out: Kd of strong affinity HARP binding sites; cited from earlier work
TNF-α = experiment: Expression of TNF-α by PBMCs (ELISA); format: cell-based, human; details: HARP 1 to 1000 ng/ml, 3 or 7 days
Description: as §1, §2

[4] = system: PBMCs treated by an anti-CD3
IL-1β = experiment: Expression of IL-1 by PBMCs (ELISA); format: cell-based, human; details: HARP 1 to 1000 ng/ml, 3 or 7 days
Description: as §1, §2

[5] = system: lymphoid cells (PBMC culture); experiment: Determination of the amplified lymphoid cell population in a PBMC culture; format: cell-based, human; details: HARP 1 μg/ml, PBMC culture 5 days
Description: as §2, with “5” for “3 or 7”, “of” for “of variable concentrations of”, “HARP” for “HARP ranging from 1 to 1000 ng/ml”, “peptides at concentrations” for “peptides”, “each” for “the legends”, “Examples described.” for “figures.”
Table II presents the effects of the HARP molecule tested at a concentration of 1 μg/ml on the proliferation of lymphoid cells.

phosphacan = phosphacan (Rattus norvegicus, UniProt Q62656); details: cited from earlier work
syndecan-3 = syndecan-3 (Rattus norvegicus, UniProt P33671); details: read-out: apparent Kd; cited from earlier work
[6] = added to PBMCs, result not shown
[7] = peptides, 7 days of incubation (FIG. 10)
[8] = 7 days, anti-CD3 1/100, HARP 1 ng/ml

Chain of phosphacan (Q62656 25-1616 isoform Q62656-3 limits assumed): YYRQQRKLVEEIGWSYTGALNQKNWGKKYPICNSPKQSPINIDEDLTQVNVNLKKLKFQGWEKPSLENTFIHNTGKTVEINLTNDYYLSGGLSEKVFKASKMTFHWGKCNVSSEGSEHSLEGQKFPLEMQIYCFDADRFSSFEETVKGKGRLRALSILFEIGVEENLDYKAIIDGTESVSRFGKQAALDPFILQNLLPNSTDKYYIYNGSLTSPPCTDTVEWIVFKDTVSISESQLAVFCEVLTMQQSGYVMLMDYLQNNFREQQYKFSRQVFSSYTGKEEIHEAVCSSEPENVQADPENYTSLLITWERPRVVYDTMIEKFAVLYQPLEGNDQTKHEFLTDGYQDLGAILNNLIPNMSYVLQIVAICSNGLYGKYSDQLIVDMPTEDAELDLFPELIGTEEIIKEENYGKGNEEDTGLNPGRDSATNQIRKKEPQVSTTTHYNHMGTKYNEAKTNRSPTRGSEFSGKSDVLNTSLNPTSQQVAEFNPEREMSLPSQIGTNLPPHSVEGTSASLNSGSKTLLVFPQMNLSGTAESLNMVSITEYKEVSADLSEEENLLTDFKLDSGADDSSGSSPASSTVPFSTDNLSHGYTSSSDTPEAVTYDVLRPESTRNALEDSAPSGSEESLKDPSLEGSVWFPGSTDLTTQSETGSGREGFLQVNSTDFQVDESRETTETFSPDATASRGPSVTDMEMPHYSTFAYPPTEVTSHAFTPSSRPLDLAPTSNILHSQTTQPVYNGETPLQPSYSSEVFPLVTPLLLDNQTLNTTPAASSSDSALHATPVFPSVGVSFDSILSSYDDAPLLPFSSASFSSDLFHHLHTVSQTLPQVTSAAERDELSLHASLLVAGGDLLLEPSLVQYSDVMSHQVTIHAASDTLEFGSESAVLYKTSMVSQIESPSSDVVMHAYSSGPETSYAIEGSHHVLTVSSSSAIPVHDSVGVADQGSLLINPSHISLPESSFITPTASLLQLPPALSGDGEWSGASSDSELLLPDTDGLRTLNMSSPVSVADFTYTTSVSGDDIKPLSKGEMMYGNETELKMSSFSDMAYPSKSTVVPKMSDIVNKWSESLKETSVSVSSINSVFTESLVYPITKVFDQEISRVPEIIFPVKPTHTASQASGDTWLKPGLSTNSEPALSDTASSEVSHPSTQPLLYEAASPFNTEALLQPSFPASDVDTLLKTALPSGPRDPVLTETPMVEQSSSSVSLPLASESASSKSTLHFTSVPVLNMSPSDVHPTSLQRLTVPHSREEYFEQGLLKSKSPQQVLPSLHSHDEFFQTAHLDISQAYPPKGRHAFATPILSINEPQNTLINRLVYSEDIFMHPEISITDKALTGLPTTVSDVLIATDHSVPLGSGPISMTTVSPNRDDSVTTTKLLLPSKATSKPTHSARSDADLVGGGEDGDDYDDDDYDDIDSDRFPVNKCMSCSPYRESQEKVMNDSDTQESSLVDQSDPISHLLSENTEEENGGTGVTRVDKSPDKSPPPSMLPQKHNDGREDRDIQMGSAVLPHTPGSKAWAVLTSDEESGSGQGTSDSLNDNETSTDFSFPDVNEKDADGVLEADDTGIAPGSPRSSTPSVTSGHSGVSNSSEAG
Chain of syndecan-3 (P33671 45-442): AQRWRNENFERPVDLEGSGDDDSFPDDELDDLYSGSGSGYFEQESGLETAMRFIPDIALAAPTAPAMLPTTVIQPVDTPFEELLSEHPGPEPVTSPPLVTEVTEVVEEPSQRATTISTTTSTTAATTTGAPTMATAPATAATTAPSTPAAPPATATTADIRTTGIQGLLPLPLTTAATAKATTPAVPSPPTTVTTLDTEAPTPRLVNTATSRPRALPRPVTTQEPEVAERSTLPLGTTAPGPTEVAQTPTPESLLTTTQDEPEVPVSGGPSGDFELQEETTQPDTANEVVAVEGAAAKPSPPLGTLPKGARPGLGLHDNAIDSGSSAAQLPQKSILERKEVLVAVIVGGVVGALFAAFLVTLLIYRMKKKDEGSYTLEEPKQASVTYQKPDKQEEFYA

Molecule: GKKEKPEKKVKKSD [HARP peptide, N terminal peptide (amino acids 1-14) of human HARP obtained by recombination in a eukaryote expression system]
- Number of cells (HUVEC cells): 12,000 ± 14,000

Molecule: angiogenin: molecule presenting a homologous protein domain [reference compound]
- expression of the inflammatory cytokines [1, 6]: Augmentation of the expression

Molecule: NH2-AEAGKKEKPEKKVKKSDCGEW-COOH (H-AEAGKKEKPEKKVKKSDCGEW-OH) [Peptide 1]
- activation response of PBMCs compared to the HARP protein ([2]; 7 days): close to half that of HARP
- activation response of PBMCs compared to the control ([2]; 7 days, 1 μg/ml peptide (FIG. 6)): more than two times higher
- expression of IL-6 (IL-6; [7]): capable of stimulating the expression of IL-6
- number of mononucleated cells in treated muscle versus peptide 2 or PBS (soleus muscle): much higher

Molecule: NH2-AESKKKKKEGKKQEKMLD-COOH (H-AESKKKKKEGKKQEKMLD-OH) [Peptide 2, peptide corresponding to the terminal COOH part of HARP; 18 amino acids]
- activation response of PBMCs compared to the HARP protein ([2]; 7 days): close to two times higher
- expression of IL-6 (IL-6; [7]): capable of stimulating the expression of IL-6

Molecule: tetanus toxin [reference compound]
- incorporated tritiated thymidine [3]: 43,000±500 cpm
- stimulation of incorporation of tritiated thymidine in relation to the control [3]: 71 times

B1: tat protein: molecule presenting a homologous protein domain (protein, UniProt P04608 1-86, looked up)
Protein Tat: MEPVDPRLEPWKHPGSQPKTACTNCYCKKCCFHCQVCFITKALGISYGRKKRRQRRRAHQNSQTHQASLSKQPTSQPRGDPTGPKE
- expression of the inflammatory cytokines [1, 6]: Augmentation of the expression

B2: MK: protein that exhibits 50% homology in amino acids with HARP (protein, UniProt P21741 21-143, looked up)
Midkine: VAKKKDKVKKGGPGSECAEWAWGPCTPSSKDCGVGFREGTCGAQTQRIRCRVPCNWKKEFGADCKYKFENWGACDGGTGTKVRQGTLKKARYNAQCQETIRVTKPCTPKTKAKAKAKKGKGKD
- stimulation of tritiated thymidine incorporation in PBMCs ([2]; MK 0.1 to 500 ng/ml): no induction; also recorded: No stimulation

B3: HARP: angiogenic growth factor; human recombinant HARP protein produced in E. coli (protein, UniProt P21246 33-168, looked up)
Pleiotrophin: GKKEKPEKKVKKSDCGEWQWSVCVPTSGDCGLGTREGTRTGAECKQTMKTQRCKIPCNWKKQFGAECKYQFQAWGECDLNTALKTRTGSLKRALHNAECQKTVTISKPCGKLTKPKPQAESKKKKKEGKKQEKMLD
- IL-2 levels (IL-2): no increase
- concentration at which active on the proliferation of lymphocytes [2]: ~10 pM
- increase in the number of cells in relation to the untreated control ([2]; HARP 100 ng/ml, experiment no. 7): 2.9 times
- HARP concentration at which maximum effect is attained ([2]; dose-response 0.1 to 500 ng/ml): 1 ng/mL
- Number of cells (HUVEC cells): 129,000 ± 26,000
- Kd (NIH 3T3 cells): 600 pM
- cell death (HIV; HARP 100 ng/ml, PBMCs from an AIDS patient): noteworthy cell death
- HARP concentration at which production of viral antigen p24 is maximal (HIV; PBMCs from an AIDS patient (CD4<200/mm^3), 3 days, HARP 0.1-100 ng/ml): 1 ng/mL
- expression of TNF-α (TNF-α): capable of inducing in a dose-dependent manner
- incorporated tritiated thymidine [4, 8]: 3500 cpm
- stimulation of incorporation of tritiated thymidine in relation to the control [4, 8]: 5.8 times
- incorporation of thymidine ([4]; HARP 10 and 100 ng/ml in the presence of anti-CD3): a weaker and a very low incorporation
- cellular mortality ([4]; HARP alone at 10 and 100 ng/ml): not seen
- expression of IL-1β (IL-1β): capable of inducing in a dose-dependent manner
- CCD2 positive cells [5]: 95%
- CCD4+ CD45RA+ cells [5]: 15%
- CCD4+ CD45RO+ cells [5]: 49%
- CCD4 positive cells [5]: 68%
- CCD8 positive cells [5]: 22%
- CCD16/56 positive cells [5]: 18%
- CCD19 positive cells [5]: 4%
- CCD25 positive cells [5]: 47%
- CCD45RA positive cells [5]: 34%
- CCD45RO positive cells [5]: 64%
- Variation of CCD4+ CD45RA+ versus control [5]: −31%
- Variation of CCD4+ CD45RO+ versus control [5]: +133%
- Variation of CCD45RO versus control [5]: +113%
- RA/RO (CCD4+ CD45RA+ / CCD4+ CD45RO+) ([5]; CD4+ cells): 0.3 ratio
- RA/RO (CCD45RA / CCD45RO) ([5]; all cells): 0.5 ratio
- Kd (phosphacan; read-out: Kd, binding sites of strong affinity): 250 pM
- Kd (phosphacan; read-out: Kd, binding sites of weak affinity): 3000 pM
- expression of the inflammatory cytokines ([1]; HARP molecule denatured): No expression
- stimulation of the production of cytokines of inflammation ([1]; in vitro and in vivo): more than 100 times
- Kd (syndecan-3): 800 pM
- cell mortality [3]: high cell mortality
- incorporated tritiated thymidine ([3]; 7 days): 3500±200 cpm
- stimulation of incorporation of tritiated thymidine in relation to the control ([3]; 7 days): 5.8 times
- expression of IL-6 (IL-6; HARP 1 to 1000 ng/ml, 3 or 7 days): capable of inducing in a dose-dependent manner
